Experiments:
Format in all cases: physicochemical
[1] = Solid phase stability of free base, methanesulfonic acid salt and nitric acid salt (HPLC), Example 18; conditions: solid stored at 25±0.5° C.
Protocol: (§1) All HPLC spectra were taken on a Waters HPLC that included Breeze software, a Waters 2487 Dual λ Absorbance Detector, a Waters 1525 Binary HPLC Pump, and a Waters 717 plus Autosampler. The column was a Phenomenex Synergi 4μ Hydro-RP 80A, 250×4.60 mm 4μ micron. The 40 minute gradient that was used is described in the table below.

[2] = Solution phase stability of free base, methanesulfonic acid salt and nitric acid salt (HPLC), Example 17; conditions: solution in distilled water, 25±0.5° C.
Protocol: as §1
A t=0 h timepoint was taken for each solution. The volumetric flasks were placed in a water bath at 25±0.5° C. and, periodically, a 0.7 mL aliquot was removed and the solution analyzed by HPLC as described in Example 15.

[3] = Solution phase stability of free base and hydrochloride salt (monomer vs dimer by HPLC), Example 15; conditions: solution in distilled water, 25±1° C.
Protocol: A 1.657 mM solution of Ac—PHSCN—NH2 in distilled water and a 1.653 mM solution of the hydrochloride salt of Ac—PHSCN—NH2 in distilled water were placed in a water bath at 25±1° C. Aliquots (800 μL) were periodically removed and the amount of dimerization was determined by HPLC.
as §1
Mobile Phase A: 0.1% TFA in acetonitrile Mobile Phase B: 0.1% TFA in water
(§2) The HPLC peak for Ac-Pro-His-Ser-Cys-Asn-NH2 monomer at approximately 9.2 minutes, and the peak for ATN-161 dimer at approximately 10.0 minutes were integrated in order to determine the percentage of these two species in each sample.

[4] = Solid phase stability of free base and hydrochloride salt (monomer vs dimer by HPLC), Example 16; conditions: solid stored at 25±1° C.
Protocol: as §1, §2
Samples of 0.8-1.2 mg of Ac—PHSCN—NH2 and Ac—PHSCN—NH2 hydrochloride salt were weighed into HPLC sample vials and stored at 25±1° C. A 0 h time point was taken. Samples were periodically removed and diluted with distilled water to give a 1 mg/mL solution. The amount of dimerization was determined by HPLC as described in Example 15. The results are illustrated graphically in FIG. 3.

## Ac-Pro-His-Ser-Cys-Asn-NH2 Methanesulfonic Acid Salt (Ac-PHSCN-NH2; also: methanesulfonic acid salt)
[1]; 0 h
  % dimer: 6.8%
  % monomer: 93.2%
[1]; 161 h
  % dimer: 7.2%
  % monomer: 92.8%
[1]; 335 h
  % dimer: 7.5%
  % monomer: 92.5%
[1]; 498 h
  % dimer: 7.0%
  % monomer: 93.0%
[1]; 670 h
  % dimer: 7.7%
  % monomer: 92.3%
[1]; 832 h
  % dimer: 7.2%
  % monomer: 92.8%
[1]; 1003 h
  % dimer: 7.2%
  % monomer: 92.8%
[1]; 1170 h
  % dimer: 7.3%
  % monomer: 92.7%
[1]; 1363 h
  % dimer: 8.6%
  % monomer: 91.4%
[1]; 1506 h
  % dimer: 7.6%
  % monomer: 92.4%
[1]; 1698 h
  % dimer: 8.1%
  % monomer: 91.9%
[2]; 0 h
  % dimer: 7.4%
  % monomer: 92.6%
[2]; 69 h
  % dimer: 22.6%
  % monomer: 77.4%
[2]; 140 h
  % dimer: 30.3%
  % monomer: 69.7%
[2]; 213 h
  % dimer: 37.2%
  % monomer: 62.8%
[2]; 332 h
  % dimer: 48.0%
  % monomer: 52.0%
[2]; 408 h
  % dimer: 54.5%
  % monomer: 45.5%
[2]; 479 h
  % dimer: 60.5%
  % monomer: 39.5%
[2]; 549 h
  % dimer: 66.7%
  % monomer: 33.3%
[2]; 645 h
  % dimer: 74.3%
  % monomer: 25.7%
[2]; 720 h
  % dimer: 79.5%
  % monomer: 20.5%
[2]; 836 h
  % dimer: 84.8%
  % monomer: 15.2%

## Ac-Pro-His-Ser-Cys-Asn-NH2, hydrochloride salt (Ac-PHSCN-NH2; also: hydrochloride salt)
[3]; 0 h
  % dimer: 0%
  % monomer: 100%
[3]; 69 h
  % dimer: 3.3%
  % monomer: 96.7%
[3]; 140 h
  % dimer: 6.1%
  % monomer: 93.9%
[3]; 188 h
  % dimer: 6.4%
  % monomer: 93.6%
[3]; 236 h
  % dimer: 6.8%
  % monomer: 93.2%
[3]; 309 h
  % dimer: 6.7%
  % monomer: 93.3%
[3]; 357 h
  % dimer: 6.7%
  % monomer: 93.3%
[3]; 404 h
  % dimer: 7.3%
  % monomer: 92.7%
[3]; 477 h
  % dimer: 8.4%
  % monomer: 91.6%
[3]; 525 h
  % dimer: 9.0%
  % monomer: 91.0%
[3]; 622 h
  % dimer: 10.7%
  % monomer: 89.3%
[4]; 0 h
  % dimer: 0%
  % monomer: 100%
[4]; 73 h
  % dimer: 0%
  % monomer: 100%
[4]; 143 h
  % dimer: 0%
  % monomer: 100%
[4]; 243 h
  % dimer: 0%
  % monomer: 100%
[4]; 312 h
  % dimer: 0%
  % monomer: 100%
[4]; 410 h
  % dimer: 0%
  % monomer: 100%
[4]; 576 h
  % dimer: 0.3%
  % monomer: 99.7%
[4]; 677 h
  % dimer: 0.7%
  % monomer: 99.3%
[4]; 818 h
  % dimer: 0%
  % monomer: 100%

Reference: patent US20080261892A1, “Acid Addition Salts of Ac-Phscn-Nh2” (priority 2005, published 2008)
